± gives the standard deviation of the averaged measurements.

For one series, the system named is MCF7. Kind of series: percentage of EdU-negative (G0-arrested) nuclei per well, 72 h; higher = more G0 arrest. The settings on record: reference: sequence is the full UniProt precursor, the tested protein was the secreted form or ectodomain.
The subject of the next series is hTERT-HMEC. Described as above. The settings on record: reference: sequence is the full UniProt precursor, the tested protein was the secreted form or ectodomain.
Where [1] appears, read: protein concentration 0.03125 µM.
Setting [2] is: protein concentration 0.3125 µM.
The mark [3] stands for this setting: protein concentration 0.0117143 µM.
Where [4] appears, read: protein concentration 0.117143 µM.
Where [5] appears, read: protein concentration 0.0225 µM.
The mark [6] stands for this setting: protein concentration 0.0075 µM.
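Also: secreted proteins added to cultured cells, EdU pulse at the end, nuclei found by Hoechst imaging, EdU status from nuclear versus surrounding ring intensity ratio, PBS as neutral control.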

For the sequence “MKLVFLVLLFLGALGLCLAGRRRSVQWCAVSQPEATKCFQWQRNMRKVRGPPVSCIKRDSPIQCIQAIAENRADAVTLDGGFIYEAGLAPYKLRPVAAEVYGTERQPRTHYYAVAVVKKGGSFQLNELQGLKSCHTGLRRTAGWNVPIGTLRPFLNWTGPPEPIEAAVARFFSASCVPGADKGQFPNLCRLCAGTGENKCAFSSQEPYFSYSGAFKCLRDGAGDVAFIRESTVFEDLSDEAERDEYELLCPDNTRKPVDKFKDCHLARVPSHAVVARSVNGKEDAIWNLLRQAQEKFGKDKSPKFQLFGSPSGQKDLLFKDSAIGFSRVPPRIDSGLYLGSGYFTAIQNLRKSEEEVAARRARVVWCAVGEQELRKCNQWSGLSEGSVTCSSASTTEDCIALVLKGEADAMSLDGGYVYTAGKCGLVPVLAENYKSQQSSDPDPNCVDRPVEGYLAVAVVRRSDTSLTWNSVKGKKSCHTAVDRTAGWNIPMGLLFNQTGSCKFDEYFSQSCAPGSDPRSNLCALCIGDEQGENKCVPNSNERYYGYTGAFRCLAENAGDVAFVKDVTVLQNTDGNNNEAWAKDLKLADFALLCLDGKRKPVTEARSCHLAMAPNHAVVSRMDKVERLKQVLLHQQAKFGRNGSDCPDKFCLFQSETKNLLFNDNTECLARLHGKTTYEKYLGPQYVAGITNLKKCSTSPLLEACEFLRK [E7EQB2]”, the “percentage of EdU-negative” value in the series with MCF7 (protein concentration 0.01 µM) came to 22.5 ± 0.39%; with MCF7 (protein concentration 0.1 µM), 24.6 ± 0.5%; in the series on hTERT-HMEC (protein concentration 0.01 µM), 5.27 ± 0.58%; in the series with hTERT-HMEC (protein concentration 0.1 µM), 5.87 ± 0.35%.

Turning to “MKLWDVVAVCLVLLHTASAFPLPAGKRPPEAPAEDRSLGRRRAPFALSSDSNMPEDYPDQFDDVMDFIQATIKRLKRSPDKQMAVLPRRERNRQAAAANPENSRGKGRRGQRGKNRGCVLTAIHLNVTDLGLGYETKEELIFRYCSGSCDAAETTYDKILKNLSRNRRLVSDKVGQACCRPIAFDDDLSFLDDNLVYHILRKHSAKRCGCI”, the “percentage of EdU-negative” value was found to be 24.9 ± 0.95% with MCF7 (setting [1]), 29.1 ± 0.3% in the series with MCF7 (setting [2]), 5.08 ± 0.53% in the series on hTERT-HMEC (setting [1]) and 5.86 ± 0.094% with hTERT-HMEC (setting [2]).

For “MKMMLVRRFRVLILMVFLVACALHIALDLLPRLERRGARPSGEPGCSCAQPAAEVAAPGWAQVRGRPGEPPAASSAAGDAGWPNKHTLRILQDFSSDPSSNLSSHSLEKLPPAAEPAERALRGRDPGALRPHDPAHRPLLRDPGPRRSESPPGPGGDASLLARLFEHPLYRVAVPPLTEEDVLFNVNSDTRLSPKAAENPDWPHAGAEGAEFLSPGEAAVDSYPNWLKFHIGINRYELYSRHNPAIEALLHDLSSQRITSVAMKSGGTQLKLIMTFQNYGQALFKPMKQTREQETPPDFFYFSDYERHNAEIAAFHLDRILDFRRVPPVAGRMVNMTKEIRDVTRDKKLWRTFFISPANNICFYGECSYYCSTEHALCGKPDQIEGSLAAFLPDLSLAKRKTWRNPWRRSYHKRKKAEWEVDPDYCEEVKQTPPYDSSHRILDVMDMTIFDFLMGNMDRHHYETFEKFGNETFIIHLDNGRGFGKYSHDELSILVPLQQCCRIRKSTYLRLQLLAKEEYKLSLLMAESLRGDQVAPVLYQPHLEALDRRLRVVLKAVRDCVERNGLHSVVDDDLDTEHRAASAR [Q8IXL6]”, the “percentage of EdU-negative” value came out at 23.5 ± 2.4% in the series on MCF7 (setting [3]), 24.2 ± 0.32% in the series with MCF7 (setting [4]), 5.97 ± 0.7% in the series with hTERT-HMEC (setting [3]) and 6.51 ± 0.12% in the series with hTERT-HMEC (setting [4]).

Regarding “MKMRFLGLVVCLVLWTLHSEGSGGKLTAVDPETNMNVSEIISYWGFPSEEYLVETEDGYILCLNRIPHGRKNHSDKGPKPVVFLQHGLLADSSNWVTNLANSSLGFILADAGFDVWMGNSRGNTWSRKHKTLSVSQDEFWAFSYDEMAKYDLPASINFILNKTGQEQVYYVGHSQGTTIGFIAFSQIPELAKRIKMFFALGPVASVAFCTSPMAKLGRLPDHLIKDLFGDKEFLPQSAFLKWLGTHVCTHVILKELCGNLCFLLCGFNERNLNMSRVDVYTTHSPAGTSVQNMLHWSQAVKFQKFQAFDWGSSAKNYFHYNQSYPPTYNVKDMLVPTAVWSGGHDWLADVYDVNILLTQITNLVFHESIPEWEHLDFIWGLDAPWRLYNKIINLMRKYQ”, the “percentage of EdU-negative” value in the series with MCF7 (setting [5]) worked out at 25.12 ± 0.15%; with MCF7 (protein concentration 0.225 µM) it was 27.7 ± 0.37%; in the series with hTERT-HMEC (setting [5]) it was 4.11 ± 0.31%; in the series on hTERT-HMEC (protein concentration 0.225 µM) it was 5.43 ± 0.3%.

For “MKMRRYKLFLMFCMAGLCLISFLHFFKTLSYVTFPRELASLSPNLVSSFFWNNAPVTPQASPEPGGPDLLRTPLYSHSPLLQPLPPSKAAEELHRVDLVLPEDTTEYFVRTKAGGVCFKPGTKMLERPPPGRPEEKPEGANGSSARRPPRYLLSARERTGGRGARRKWVECVCLPGWHGPSCGVPTVVQYSNLPTKERLVPREVPRRVINAINVNHEFDLLDVRFHELGDVVDAFVVCESNFTAYGEPRPLKFREMLTNGTFEYIRHKVLYVFLDHFPPGGRQDGWIADDYLRTFLTQDGVSRLRNLRPDDVFIIDDADEIPARDGVLFLKLYDGWTEPFAFHMRKSLYGFFWKQPGTLEVVSGCTVDMLQAVYGLDGIRLRRRQYYTMPNFRQYENRTGHILVQWSLGSPLHFAGWHCSWCFTPEGIYFKLVSAQNGDFPRWGDYEDKRDLNYIRGLIRTGGWFDGTQQEYPPADPSEHMYAPKYLLKNYDRFHYLLDNPYQEPRSTAAGGWRHRGPEGRPPARGKLDEAEV”, the “percentage of EdU-negative” value in the series with MCF7 (setting [6]) is 24.8 ± 2.6%; with MCF7 (protein concentration 0.075 µM), 29.1 ± 1.5%; in the series with hTERT-HMEC (setting [6]), 5.484 ± 0.037%; with hTERT-HMEC (protein concentration 0.075 µM) it was 8.45 ± 1.1%.

Regarding “MKMWLLVSHLVIISITTCLAEFTWYRRYGHGVSEEDKGFGPIFEEQPINTIYPEESLEGKVSLNCRARASPFPVYKWRMNNGDVDLTSDRYSMVGGNLVINNPDKQKDAGIYYCLASNNYGMVRSTEATLSFGYLDPFPPEERPEVRVKEGKGMVLLCDPPYHFPDDLSYRWLLNEFPVFITMDKRRFVSQTNGNLYIANVEASDKGNYSCFVSSPSITKSVFSKFIPLIPIPERTTKPYPADIVVQFKDVYALMGQNVTLECFALGNPVPDIRWRKVLEPMPSTAEISTSGAVLKIFNIQLEDEGIYECEAENIRGKDKHQARIYVQAFPEWVEHINDTEVDIGSDLYWPCVATGKPIPTIRWLKNGYAYHKGELRLYDVTFENAGMYQCIAENTYGAIYANAELKILALAPTFEMNPMKKKILAAKGGRVIIECKPKAAPKPKFSWSKGTEWLVNSSRILIWEDGSLEINNITRNDGGIYTCFAENNRGKANSTGTLVITDPTRIILAPINADITVGENATMQCAASFDPALDLTFVWSFNGYVIDFNKENIHYQRNFMLDSNGELLIRNAQLKHAGRYTCTAQTIVDNSSASADLVVRGPPGPPGGLRIEDIRATSVALTWSRGSDNHSPISKYTIQTKTILSDDWKDAKTDPPIIEGNMEAARAVDLIPWMEYEFRVVATNTLGRGEPSIPSNRIKTDGAAPNVAPSDVGGGGGRNRELTITWAPLSREYHYGNNFGYIVAFKPFDGEEWKKVTVTNPDTGRYVHKDETMSPSTAFQVKVKAFNNKGDGPYSLVAVINSAQDAPSEAPTEVGVKVLSSSEISVHWEHVLEKIVESYQIRYWAAHDKEEAANRVQVTSQEYSARLENLLPDTQYFIEVGACNSAGCGPPSDMIEAFTKKAPPSQPPRIISSVRSGSRYIITWDHVVALSNESTVTGYKVLYRPDGQHDGKLYSTHKHSIEVPIPRDGEYVVEVRAHSDGGDGVVSQVKISGAPTLSPSLLGLLLPAFGILVYLEF”, the “percentage of EdU-negative” value in the series on MCF7 (setting [5]) was 24.5 ± 1.2%; in the series on MCF7 (protein concentration 0.225 µM) it was 26.2 ± 0.55%; in the series on hTERT-HMEC (setting [5]) it was 5.11 ± 0.28%; with hTERT-HMEC (protein concentration 0.225 µM), 5.87 ± 0.46%.

Regarding “MKPAAREARLPPRSPGLRWALPLLLLLLRLGQILCAGGTPSPIPDPSVATVATGENGITQISSTAESFHKQNGTGTPQVETNTSEDGESSGANDSLRTPEQGSNGTDGASQKTPSSTGPSPVFDIKAVSISPTNVILTWKSNDTAASEYKYVVKHKMENEKTITVVHQPWCNITGLRPATSYVFSITPGIGNETWGDPRVIKVITEPIPVSDLRVALTGVRKAALSWSNGNGTASCRVLLESIGSHEELTQDSRLQVNISGLKPGVQYNINPYLLQSNKTKGDPLGTEGGLDASNTERSRAGSPTAPVHDESLVGPVDPSSGQQSRDTEVLLVGLEPGTRYNATVYSQAANGTEGQPQAIEFRTNAIQVFDVTAVNISATSLTLIWKVSDNESSSNYTYKIHVAGETDSSNLNVSEPRAVIPGLRSSTFYNITVCPVLGDIEGTPGFLQVHTPPVPVSDFRVTVVSTTEIGLAWSSHDAESFQMHITQEGAGNSRVEITTNQSIIIGGLFPGTKYCFEIVPKGPNGTEGASRTVCNRTVPSAVFDIHVVYVTTTEMWLDWKSPDGASEYVYHLVIESKHGSNHTSTYDKAITLQGLIPGTLYNITISPEVDHVWGDPNSTAQYTRPSNVSNIDVSTNTTAATLSWQNFDDASPTYSYCLLIEKAGNSSNATQVVTDIGITDATVTELIPGSSYTVEIFAQVGDGIKSLEPGRKSFCTDPASMASFDCEVVPKEPALVLKWTCPPGANAGFELEVSSGAWNNATHLESCSSENGTEYRTEVTYLNFSTSYNISITTVSCGKMAAPTRNTCTTGITDPPPPDGSPNITSVSHNSVKVKFSGFEASHGPIKAYAVILTTGEAGHPSADVLKYTYEDFKKGASDTYVTYLIRTEEKGRSQSLSEVLKYEIDVGNESTTLGYYNGKLEPLGSYRACVAGFTNITFHPQNKGLIDGAESYVSFSRYSDAVSLPQDPGVICGAVFGCIFGALVIVTVGGFIFWRKKRKDAKNNEVSFSQIKPKKSKLIRVENFEAYFKKQQADSNCGFAEEYEDLKLVGISQPKYAAELAENRGKNRYNNVLPYDISRVKLSVQTHSTDDYINANYMPGYHSKKDFIATQGPLPNTLKDFWRMVWEKNVYAIIMLTKCVEQGRTKCEEYWPSKQAQDYGDITVAMTSEIVLPEWTIRDFTVKNIQTSESHPLRQFHFTSWPDHGVPDTTDLLINFRYLVRDYMKQSPPESPILVHCSAGVGRTGTFIAIDRLIYQIENENTVDVYGIVYDLRMHRPLMVQTEDQYVFLNQCVLDIVRSQKDSKVDLIYQNTTAMTIYENLAPVTTFGKTNGYIA”, the “percentage of EdU-negative” value in the series with MCF7 (setting [5]) stood at 23.2 ± 1.6%; with MCF7 (protein concentration 0.225 µM), 22.4 ± 0.63%; in the series with hTERT-HMEC (setting [5]), 5.56 ± 1.9%; in the series on hTERT-HMEC (protein concentration 0.225 µM), 5.79 ± 0.53%.

For the sequence “MKPALLEVMRMNRICRMVLATCLGSFILVIFYFQSMLHPVMRRNPFGVDICCRKGSRSPLQELYNPIQLELSNTAVLHQMRRDQVTDTCRANSATSRKRRVLTPNDLKHLVVDEDHELIYCYVPKVACTNWKRLMMVLTGRGKYSDPMEIPANEAHVSANLKTLNQYSIPEINHRLKSYMKFLFVREPFERLVSAYRNKFTQKYNISFHKRYGTKIIKRQRKNATQEALRKGDDVKFEEFVAYLIDPHTQREEPFNEHWQTVYSLCHPCHIHYDLVGKYETLEEDSNYVLQLAGVGSYLKFPTYAKSTRTTDEMTTEFFQNISSEHQTQLYEVYKLDFLMFNYSVPSYLKLE [Q9NPF2]”, the “percentage of EdU-negative” value with MCF7 (setting [5]) was 23.2 ± 1.9%; in the series with MCF7 (protein concentration 0.225 µM) it was 24.6 ± 1.8%; in the series on hTERT-HMEC (setting [5]) it was 5.07 ± 0.051%; in the series with hTERT-HMEC (protein concentration 0.225 µM), 18.8 ± 3%.

(Values after the supplement of paper PMC11316812.)
